Columns and labels:
purified protein = substrate: C[N+](C)(C)CC=O; experiment: purified protein; details: 50 mM HEPES-KOH pH 8.0, 500 μM NAD+
[1] = substrate: NC(=O)c1ccc[n+]([C@@H]2O[C@H](COP(=O)(O)OP(=O)(O)OC[C@H]3O[C@@H](n4cnc5c(N)ncnc54)[C@H](OP(=O)(O)O)[C@@H]3O)[C@@H](O)[C@H]2O)c1; experiment: spectrophotometric aldehyde dehydrogenase assay (NADH formation); type: biochemical, Leymus chinensis; details: 50 mM HEPES-KOH pH 8.0, 200 μM betaine aldehyde
[2] = substrate: C[N+](C)(C)CCC=O; experiment: as above; type: biochemical, Leymus chinensis; details: 50 mM HEPES-KOH pH 8.0, 500 μM NAD+
From the text: (§1) spectrophotometric aldehyde dehydrogenase assay (NADH formation) on LcBADH2

[3] = substrate: NC(=O)c1ccc[n+]([C@@H]2O[C@H](COP(=O)(O)OP(=O)(O)OC[C@H]3O[C@@H](n4cnc5c(N)ncnc54)[C@H](O)[C@@H]3O)[C@@H](O)[C@H]2O)c1; experiment: as above; type: biochemical, Leymus chinensis; details: 50 mM HEPES-KOH pH 8.0, 200 μM betaine aldehyde
From the text: as §1

[4] = substrate: NCCCC=O; experiment: as above; type: biochemical, Leymus chinensis; details: 50 mM HEPES-KOH pH 8.0, 500 μM NAD+
From the text: as §1

[5] = substrate: NCCC=O; experiment: as above; type: biochemical, Leymus chinensis; details: 50 mM HEPES-KOH pH 8.0, 500 μM NAD+
From the text: as §1

[6] = substrate: C[N+](C)(C)CCCC=O; experiment: as above; type: biochemical, Leymus chinensis; details: 50 mM HEPES-KOH pH 8.0, 500 μM NAD+
From the text: as §1

[7] = substrate: C[N+](C)(C)CCC=O; experiment: as above; type: biochemical, Leymus chinensis; details: 50 mM HEPES-KOH pH 8.0, 500 μM NAD+; remark: listed apart in the source
From the text: (§2) spectrophotometric aldehyde dehydrogenase assay (NADH formation) on LcBADH1

[8] = substrate: NC(=O)c1ccc[n+]([C@@H]2O[C@H](COP(=O)(O)OP(=O)(O)OC[C@H]3O[C@@H](n4cnc5c(N)ncnc54)[C@H](O)[C@@H]3O)[C@@H](O)[C@H]2O)c1; experiment: as above; type: biochemical, Leymus chinensis; details: 50 mM HEPES-KOH pH 8.0, 5 mM betaine aldehyde
From the text: as §2

[9] = substrate: NCCCC=O; experiment: as above; type: biochemical, Leymus chinensis; details: 50 mM HEPES-KOH pH 8.0, 500 μM NAD+; remark: listed apart in the source
From the text: as §2

[10] = substrate: NCCC=O; experiment: as above; type: biochemical, Leymus chinensis; details: 50 mM HEPES-KOH pH 8.0, 500 μM NAD+; remark: listed apart in the source
From the text: as §2

[11] = substrate: C[N+](C)(C)CCCC=O; experiment: as above; type: biochemical, Leymus chinensis; details: 50 mM HEPES-KOH pH 8.0, 500 μM NAD+; remark: listed apart in the source
From the text: as §2

| Protein | Km (purified protein) [µM] | Vmax (purified protein) [µmol/min/mg] | Km [1] [µM] | Km [2] [µM] | Vmax [2] [µmol/min/mg] | Km [3] [µM] | Vmax [3] [µmol/min/mg] | Km [4] [µM] | Vmax [4] [µmol/min/mg] | Km [5] [µM] | Vmax [5] [µmol/min/mg] | Km [6] [µM] | Vmax [6] [µmol/min/mg] | Km [7] [µM] | Km [8] [µM] | Km [9] [µM] | Km [10] [µM] | Km [11] [µM] |
| --- | --- | --- | --- | --- | --- | --- | --- | --- | --- | --- | --- | --- | --- | --- | --- | --- | --- | --- |
| LcBADH2 (Leymus chinensis) (protein, approx 54 kDa) MASPAIPQRQLFIDGEWRAPALGRRLPVINPTTEASIGEIPSGTSEDVDAAVAAARAALKRNRGRDWSRAPGAVRAKYLRAIAAKMIERKADLARLEALDCGKPLDEAAWDMDDVAGCFEFFAGHAEALDKRQNAAVSLPENFKCHLKKEPIGVVSLITPWNYPLLMATWKVAPALAAGCTAVLKPSELASVTCLELADVCKEVGLPPGVLNVVTGLGPEAGAPLSSHPDVDKVAFTGSYATGQKIMVAAAPTVKAVTLELGGKSPIVVFDDVDIDKAVEWTLFGCFWTNGQICSATSRLLIHKNIAKEFVDRMVAWSKNIKVSDPLEEGCRLGPVVSEGQYEKIKKFISNAKSEGATILTGGVRPKHMEKGFFIEPTIITDINTSMEIWREEVFGPVLCVKEFSTEEEAIELANDTHYGLAGAVISGDRERCQRLAEEIDAGCIWVNCSQPCFCQAPWGGNKRSGFGRELGEGGIDNYLSIKQVTEYTSDAPWGWYKAPAN | 109 ± 10.0 | 1.59 | 3680 ± 725 | 91.4 ± 9.60 | 1.01 | 7.66 ± 0.60 | 1.36 | 1.96 ± 0.30 | 1.29 | 4.53 ± 0.81 | 2.16 | 22.1 ± 1.50 | 1.33 |  |  |  |  |  |
| LcBADH1 (Leymus chinensis) (protein, approx 54 kDa) MAAPPAIPRRGLFIGGGWREPTLGRRIPVINPATEDTIGDIPAATVEDVELAVAAARSAFLLDGGSRWSRASGATRAKYLNAIAAKIKEKISYLALLETVDSGKPKDEAVADMDDVAACFEYYAGLAEALDGKQHAPISLPMEEFKTYVLKEPIGVVGLITPWNYPLLMATWKVAPALAAGCTAVLKPSELASLTCLELGAICEEIGLPSGVLNIITGLGADAGAPIASHPHVDKIAFTGSTATSKTIMTAAAQMVKPVSLELGGKSPLVIFDDVADIDKAVEWAMFGCFFNGGQVCSATSRLLLREKIAERFLDRLVEWAKNIKISDPLEEGCRLGSVVSKGQYEKIKKFISTARSEGATILHGGDRPKHLGKGFFIEPTIITDVSTSMQIWREEVFGPVICVKVFKTESEAIELANDTHYGLAGGVISDDLERCERIAKVIHSGIVWINCSQPTLVQAPWGGNKQSGFGRELGEWGLENYLSVKQVTRYCKDELYGWYQRPSKL | 27300 ± 7000 |  |  |  |  |  |  |  |  |  |  |  |  | 762 ± 175 | 15.6 ± 5.70 | 48.1 ± 12.6 | 27.4 ± 6.30 | 56.5 ± 17.0 |

— article PMC4431990, “Functional and expression analyses of two kinds of betaine aldehyde dehydrogenases in a glycinebetaine-hyperaccumulating graminaceous halophyte, Leymus chinensis” (SpringerPlus, 2015)
